Results published in US20080293922A1.

Biological target: β-amyloid peptide Aβ1-40 (Homo sapiens (Human)) (UniProt P05067)
Experiment: Dissociation of 125I-VEGF165 from resuspended Aβ1-40/VEGF co-aggregate, radioactivity in supernatant

Vascular endothelial growth factor VEGF165, sequence (P15692 other isoform, or with tags, fused parts or gaps): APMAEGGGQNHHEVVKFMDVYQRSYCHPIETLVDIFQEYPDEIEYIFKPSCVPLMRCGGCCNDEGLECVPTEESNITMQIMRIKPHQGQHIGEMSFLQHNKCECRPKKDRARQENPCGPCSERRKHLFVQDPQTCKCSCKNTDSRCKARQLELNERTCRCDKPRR

percent of VEGF released from the Aβ/VEGF complex after 3 days: < 1.5%
Substance: Vascular endothelial growth factor VEGF165 (from UniProt P15692 207-395) (ligand)
